Measurements published in publication PMC1201339.

Columns and labels:
Assay in all cases: filter binding
Cdc6-1 FL = biological target: T1, Cdc6-1 FL (Methanothermobacter thermautotrophicus, UniProt O27463 1-382)
T1 sequence: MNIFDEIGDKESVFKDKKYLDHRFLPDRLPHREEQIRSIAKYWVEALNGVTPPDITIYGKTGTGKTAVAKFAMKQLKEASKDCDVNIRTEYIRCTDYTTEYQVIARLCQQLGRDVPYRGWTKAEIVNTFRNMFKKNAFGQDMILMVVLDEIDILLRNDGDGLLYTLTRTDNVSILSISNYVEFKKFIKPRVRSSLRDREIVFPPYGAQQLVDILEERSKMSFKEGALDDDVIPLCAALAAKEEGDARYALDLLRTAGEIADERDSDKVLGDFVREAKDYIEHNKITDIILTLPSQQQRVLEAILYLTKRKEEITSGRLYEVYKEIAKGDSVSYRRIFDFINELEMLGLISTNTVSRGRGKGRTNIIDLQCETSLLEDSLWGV

Cdc6-2 FL = biological target: T2, Cdc6-2 FL (Methanothermobacter thermautotrophicus, UniProt O27636 1-379)
T2 sequence: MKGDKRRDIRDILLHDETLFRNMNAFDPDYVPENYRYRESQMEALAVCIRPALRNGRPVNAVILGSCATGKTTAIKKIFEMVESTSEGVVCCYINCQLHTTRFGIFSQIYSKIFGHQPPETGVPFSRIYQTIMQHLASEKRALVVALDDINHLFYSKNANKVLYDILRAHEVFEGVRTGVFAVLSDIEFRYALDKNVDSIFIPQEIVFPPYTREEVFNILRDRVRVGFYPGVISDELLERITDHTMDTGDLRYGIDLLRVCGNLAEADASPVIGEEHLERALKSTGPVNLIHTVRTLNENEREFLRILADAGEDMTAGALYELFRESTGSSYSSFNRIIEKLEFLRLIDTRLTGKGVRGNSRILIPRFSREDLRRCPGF

Cdc6-2 WH = biological target: T3, Cdc6-2 WH (Methanothermobacter thermautotrophicus, UniProt O27636 292-379)
T3 sequence: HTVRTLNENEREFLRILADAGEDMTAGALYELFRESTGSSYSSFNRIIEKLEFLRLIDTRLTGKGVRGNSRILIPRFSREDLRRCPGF

Cdc6-1 WH = biological target: T4, Cdc6-1 WH (Methanothermobacter thermautotrophicus, UniProt O27463 287-382)
T4 sequence: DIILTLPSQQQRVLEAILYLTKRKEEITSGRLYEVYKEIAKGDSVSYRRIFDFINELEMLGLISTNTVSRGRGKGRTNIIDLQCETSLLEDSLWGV

Binder: TACATATGTACATGGGTACATATGTACATGGGTACATATGTACAT (ssDNA) [MR163 45mer ssDNA]
- binding result (Cdc6-1 FL): no binding
- binding result (Cdc6-2 FL): binds

B1: MR163/MR164 45 bp dsDNA (dsDNA)
DNA 1: TACATATGTACATGGGTACATATGTACATGGGTACATATGTACAT
DNA 2: ATGTACATATGTACCCATGTACATATGTACCCATGTACATATGTA
- binding result (Cdc6-2 WH): no binding
- binding result (Cdc6-1 WH): no binding
- binding result (Cdc6-2 FL): binds
